From article doi:10.1101/2023.07.11.548556, “Skeletal progenitor LRP1 deficiency causes severe and persistent skeletal defects with WNT/planar cell polarity dysregulation” (bioRxiv, 2023)

B1: Wnt3a (ligand, UniProt P56704 19-352, looked up)
chain: SYPIWWSLAVGPQYSSLGSQPILCASIPGLVPKQLRFCRNYVEIMPSVAEGIKIGIQECQHQFRGRRWNCTTVHDSLAIFGPVLDKATRESAFVHAIASAGVAFAVTRSCAEGTAAICGCSSRHQGSPGKGWKWGGCSEDIEFGGMVSREFADARENRPDARSAMNRHNNEAGRQAIASHMHLKCKCHGLSGSCEVKTCWWSQPDFRAIGDFLKDKYDSASEMVVEKHRESRGWVETLRPRYTYFKVPTERDLVYYEASPNFCEPNPETGSFGTRDRTCNVSSHGIDGCDLLCCGRGHNARAERRREKCRCVFHWCCYVSCQECTRVYDVHTCK
notes: Wnt3a, purified protein; source: purified
B2: Wnt11 (ligand, UniProt O96014 25-354, looked up)
chain: IKWLALSKTPSALALNQTQHCKQLEGLVSAQVQLCRSNLELMHTVVHAAREVMKACRRAFADMRWNCSSIELAPNYLLDLERGTRESAFVYALSAAAISHAIARACTSGDLPGCSCGPVPGEPPGPGNRWGGCADNLSYGLLMGAKFSDAPMKVKKTGSQANKLMRLHNSEVGRQALRASLEMKCKCHGVSGSCSIRTCWKGLQELQDVAADLKTRYLSATKVVHRPMGTRKHLVPKDLDIRPVKDSELVYLQSSPDFCMKNEKVGSHGTQDRQCNKTSNGSDSCDLMCCGRGYNPYTDRVVERCHCKYHWCCYVTCRRCERTVERYVCK
notes: Wnt11, purified protein; source: purified
B3: Wnt5a (ligand, UniProt P41221 62-380, looked up)
chain: IIGAQPLCSQLAGLSQGQKKLCHLYQDHMQYIGEGAKTGIKECQYQFRHRRWNCSTVDNTSVFGRVMQIGSRETAFTYAVSAAGVVNAMSRACREGELSTCGCSRAARPKDLPRDWLWGGCGDNIDYGYRFAKEFVDARERERIHAKGSYESARILMNLHNNEAGRRTVYNLADVACKCHGVSGSCSLKTCWLQLADFRKVGDALKEKYDSAAAMRLNSRGKLVQVNSRFNSPTTQDLVYIDPSPDYCVRNESTGSLGTQGRLCNKTSEGMDGCELMCCGRGYDQFKTVQTERCHCKFHWCCYVKCKKCTEIVDQFVCK
notes: Wnt5a, purified protein; source: purified

Target: T1, Low-density lipoprotein receptor-related protein 1 (LRP1), purified human full-length (human, UniProt Q07954 20-4544)
T1 construct: Low-density lipoprotein receptor-related protein 1 (LRP1), human, purified full-length protein coated on the plate; also called full-length LRP1; Full-length sLRP1; source: purified
Assay: ELISA; solid-phase binding assay; human full-length LRP1 (10 nM in 50 mM Tris-HCl pH 7.5, 150 mM NaCl, 10 mM CaCl2) coated on microtiter plates; 0-200 nM Wnt in 5% BSA blocking solution, 30 min at RT; bound Wnt detected with a specific anti-Wnt antibody; signal of uncoated wells subtracted; apparent constants (KD,app) extrapolated from a one-phase decay nonlinear fit
Conditions: both partners purified

T1 sequence (Q07954 20-4544): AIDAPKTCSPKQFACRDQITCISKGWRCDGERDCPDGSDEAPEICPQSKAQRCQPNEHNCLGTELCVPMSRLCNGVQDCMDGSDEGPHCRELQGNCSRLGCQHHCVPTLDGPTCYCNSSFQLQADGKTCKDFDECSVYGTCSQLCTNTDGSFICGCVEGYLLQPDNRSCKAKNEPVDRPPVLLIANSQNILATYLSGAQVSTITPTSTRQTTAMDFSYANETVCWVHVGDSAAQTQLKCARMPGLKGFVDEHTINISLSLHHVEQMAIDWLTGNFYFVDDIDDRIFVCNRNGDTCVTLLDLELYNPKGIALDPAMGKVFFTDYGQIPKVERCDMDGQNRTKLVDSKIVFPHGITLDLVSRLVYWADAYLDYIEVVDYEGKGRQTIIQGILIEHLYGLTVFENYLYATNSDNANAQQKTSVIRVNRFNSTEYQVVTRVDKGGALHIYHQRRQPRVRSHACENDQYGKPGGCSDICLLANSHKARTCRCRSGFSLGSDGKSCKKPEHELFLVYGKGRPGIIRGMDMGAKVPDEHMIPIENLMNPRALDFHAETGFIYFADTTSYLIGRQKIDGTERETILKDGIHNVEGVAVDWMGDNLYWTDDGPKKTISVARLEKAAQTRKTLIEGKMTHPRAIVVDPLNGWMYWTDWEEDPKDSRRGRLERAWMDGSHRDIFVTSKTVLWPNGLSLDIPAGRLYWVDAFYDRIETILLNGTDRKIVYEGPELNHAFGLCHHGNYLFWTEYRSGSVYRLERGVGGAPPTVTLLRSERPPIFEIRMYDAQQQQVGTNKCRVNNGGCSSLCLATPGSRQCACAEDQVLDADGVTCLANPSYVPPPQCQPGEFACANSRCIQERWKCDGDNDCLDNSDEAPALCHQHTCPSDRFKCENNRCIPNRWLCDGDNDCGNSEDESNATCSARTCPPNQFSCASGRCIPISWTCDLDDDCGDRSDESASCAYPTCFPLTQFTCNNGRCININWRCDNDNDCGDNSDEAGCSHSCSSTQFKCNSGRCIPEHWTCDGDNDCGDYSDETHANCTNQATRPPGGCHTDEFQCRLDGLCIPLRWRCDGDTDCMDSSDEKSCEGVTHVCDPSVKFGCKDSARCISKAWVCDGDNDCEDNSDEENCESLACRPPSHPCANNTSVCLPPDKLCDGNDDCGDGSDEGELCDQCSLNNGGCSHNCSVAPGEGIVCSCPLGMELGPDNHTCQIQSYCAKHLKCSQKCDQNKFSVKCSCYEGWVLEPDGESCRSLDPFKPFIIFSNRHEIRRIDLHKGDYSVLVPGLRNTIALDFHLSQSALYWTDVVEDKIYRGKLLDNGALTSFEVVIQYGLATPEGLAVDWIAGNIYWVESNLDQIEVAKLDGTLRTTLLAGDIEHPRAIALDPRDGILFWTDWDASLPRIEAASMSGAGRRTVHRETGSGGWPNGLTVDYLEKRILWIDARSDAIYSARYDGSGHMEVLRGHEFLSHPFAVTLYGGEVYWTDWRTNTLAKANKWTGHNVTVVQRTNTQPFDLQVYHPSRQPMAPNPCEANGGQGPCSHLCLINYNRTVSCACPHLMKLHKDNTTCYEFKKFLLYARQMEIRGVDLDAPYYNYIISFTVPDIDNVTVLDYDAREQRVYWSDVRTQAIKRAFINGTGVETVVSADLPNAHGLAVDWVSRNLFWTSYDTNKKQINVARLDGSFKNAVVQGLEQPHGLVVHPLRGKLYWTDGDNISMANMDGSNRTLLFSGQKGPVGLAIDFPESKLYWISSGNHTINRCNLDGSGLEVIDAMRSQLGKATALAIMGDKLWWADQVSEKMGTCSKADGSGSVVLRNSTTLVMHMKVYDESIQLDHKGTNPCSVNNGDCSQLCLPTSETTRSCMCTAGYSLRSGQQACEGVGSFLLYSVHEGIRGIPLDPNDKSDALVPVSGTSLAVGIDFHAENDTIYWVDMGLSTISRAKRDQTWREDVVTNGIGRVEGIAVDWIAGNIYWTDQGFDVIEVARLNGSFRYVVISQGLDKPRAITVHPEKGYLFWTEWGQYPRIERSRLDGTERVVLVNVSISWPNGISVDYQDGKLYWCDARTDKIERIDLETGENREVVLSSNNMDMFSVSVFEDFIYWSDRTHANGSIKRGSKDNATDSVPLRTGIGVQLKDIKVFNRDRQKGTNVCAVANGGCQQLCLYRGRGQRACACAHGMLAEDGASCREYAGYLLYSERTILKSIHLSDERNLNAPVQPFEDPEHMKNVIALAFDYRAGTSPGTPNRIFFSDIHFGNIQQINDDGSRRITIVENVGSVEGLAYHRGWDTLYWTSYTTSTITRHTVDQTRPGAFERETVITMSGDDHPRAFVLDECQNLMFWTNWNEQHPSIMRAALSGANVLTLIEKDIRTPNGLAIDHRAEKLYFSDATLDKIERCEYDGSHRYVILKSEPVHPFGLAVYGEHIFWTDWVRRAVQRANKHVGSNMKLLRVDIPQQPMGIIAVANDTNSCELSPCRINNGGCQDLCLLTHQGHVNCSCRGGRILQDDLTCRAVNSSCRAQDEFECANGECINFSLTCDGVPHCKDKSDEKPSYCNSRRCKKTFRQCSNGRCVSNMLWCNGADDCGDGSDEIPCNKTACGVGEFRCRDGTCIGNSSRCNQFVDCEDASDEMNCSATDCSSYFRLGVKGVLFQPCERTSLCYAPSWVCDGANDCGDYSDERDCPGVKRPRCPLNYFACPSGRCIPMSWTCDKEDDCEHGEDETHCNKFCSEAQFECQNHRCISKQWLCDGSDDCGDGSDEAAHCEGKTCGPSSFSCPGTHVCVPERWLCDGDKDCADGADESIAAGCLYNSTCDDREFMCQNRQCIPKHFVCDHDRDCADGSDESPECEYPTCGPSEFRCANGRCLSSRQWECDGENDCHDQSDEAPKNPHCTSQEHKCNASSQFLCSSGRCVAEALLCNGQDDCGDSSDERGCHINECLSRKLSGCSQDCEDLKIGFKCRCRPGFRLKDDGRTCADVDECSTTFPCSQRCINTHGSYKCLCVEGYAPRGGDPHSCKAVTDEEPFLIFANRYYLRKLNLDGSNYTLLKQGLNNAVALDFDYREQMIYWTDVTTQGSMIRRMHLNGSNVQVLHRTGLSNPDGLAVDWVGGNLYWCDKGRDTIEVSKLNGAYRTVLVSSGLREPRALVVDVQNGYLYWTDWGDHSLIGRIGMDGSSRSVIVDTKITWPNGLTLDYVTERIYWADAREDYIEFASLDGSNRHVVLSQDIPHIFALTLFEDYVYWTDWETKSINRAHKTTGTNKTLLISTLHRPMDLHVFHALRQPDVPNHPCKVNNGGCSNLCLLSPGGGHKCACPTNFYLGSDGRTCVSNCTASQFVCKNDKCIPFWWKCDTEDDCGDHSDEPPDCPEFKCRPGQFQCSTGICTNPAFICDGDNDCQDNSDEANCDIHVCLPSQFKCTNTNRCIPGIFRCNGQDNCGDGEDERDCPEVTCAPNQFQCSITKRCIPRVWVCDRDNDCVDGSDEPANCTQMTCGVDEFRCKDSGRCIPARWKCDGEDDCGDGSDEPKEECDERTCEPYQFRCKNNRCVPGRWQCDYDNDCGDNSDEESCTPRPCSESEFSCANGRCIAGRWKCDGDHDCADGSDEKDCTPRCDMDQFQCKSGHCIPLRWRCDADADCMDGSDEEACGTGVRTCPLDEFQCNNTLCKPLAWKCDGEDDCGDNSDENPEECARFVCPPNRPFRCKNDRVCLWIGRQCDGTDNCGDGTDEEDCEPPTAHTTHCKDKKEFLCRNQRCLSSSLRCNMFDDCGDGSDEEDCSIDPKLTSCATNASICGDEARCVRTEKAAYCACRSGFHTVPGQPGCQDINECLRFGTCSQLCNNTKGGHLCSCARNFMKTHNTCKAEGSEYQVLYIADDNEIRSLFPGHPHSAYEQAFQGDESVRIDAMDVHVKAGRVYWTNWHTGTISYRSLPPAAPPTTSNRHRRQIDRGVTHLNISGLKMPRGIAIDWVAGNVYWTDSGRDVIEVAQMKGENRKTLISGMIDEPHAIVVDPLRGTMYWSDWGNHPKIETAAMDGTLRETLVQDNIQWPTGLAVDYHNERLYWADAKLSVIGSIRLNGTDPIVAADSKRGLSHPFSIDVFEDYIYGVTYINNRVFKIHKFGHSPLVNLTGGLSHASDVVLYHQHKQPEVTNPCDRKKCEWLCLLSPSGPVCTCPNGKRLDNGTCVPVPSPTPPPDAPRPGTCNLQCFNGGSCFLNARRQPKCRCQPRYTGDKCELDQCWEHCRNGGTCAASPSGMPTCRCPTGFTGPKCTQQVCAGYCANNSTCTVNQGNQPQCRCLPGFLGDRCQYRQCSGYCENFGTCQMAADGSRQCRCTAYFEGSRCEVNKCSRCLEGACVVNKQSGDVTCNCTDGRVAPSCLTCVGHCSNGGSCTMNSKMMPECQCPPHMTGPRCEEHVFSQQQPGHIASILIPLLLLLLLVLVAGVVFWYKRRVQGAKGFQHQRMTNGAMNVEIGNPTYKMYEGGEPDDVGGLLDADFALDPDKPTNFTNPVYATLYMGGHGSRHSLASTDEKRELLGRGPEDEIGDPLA

| Binder | Kd [nM] |
| --- | --- |
| B1 | > 200 |
| B2 | 42 |
| B3 | 31 |
